Measured values from patent US20230181756A1 (Novartis, published 2023).
Residue numbers refer to the chain shown, from its start. Names and notes keep the numbering of the source.

Experiments:
CCR9 = biological target: T1, CCR9 (UniProt P51686 1-369, limits assumed); test: FACS on PF382 cells (CCR7-/CCR9+/CCR6+)
T1 construct: whole, on cells; also called PF382 cells (CCR7-/CCR9+/CCR6+)
T1 sequence (looked up): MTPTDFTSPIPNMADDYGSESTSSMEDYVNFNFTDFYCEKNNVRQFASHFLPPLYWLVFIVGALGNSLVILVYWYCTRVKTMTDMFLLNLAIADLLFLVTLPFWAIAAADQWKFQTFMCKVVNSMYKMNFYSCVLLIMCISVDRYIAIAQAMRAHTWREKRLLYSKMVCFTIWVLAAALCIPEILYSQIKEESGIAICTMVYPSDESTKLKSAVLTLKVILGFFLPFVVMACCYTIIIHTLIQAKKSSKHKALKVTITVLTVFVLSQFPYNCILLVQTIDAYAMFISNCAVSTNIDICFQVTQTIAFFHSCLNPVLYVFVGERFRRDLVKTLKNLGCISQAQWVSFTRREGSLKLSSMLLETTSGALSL

CCR6 = biological target: T2, CCR6 (UniProt P51684 1-374, limits assumed); test: FACS on PF382 cells (CCR7-/CCR9+/CCR6+)
T2 construct: whole, on cells; also called PF382 cells (CCR7-/CCR9+/CCR6+)
T2 sequence (looked up): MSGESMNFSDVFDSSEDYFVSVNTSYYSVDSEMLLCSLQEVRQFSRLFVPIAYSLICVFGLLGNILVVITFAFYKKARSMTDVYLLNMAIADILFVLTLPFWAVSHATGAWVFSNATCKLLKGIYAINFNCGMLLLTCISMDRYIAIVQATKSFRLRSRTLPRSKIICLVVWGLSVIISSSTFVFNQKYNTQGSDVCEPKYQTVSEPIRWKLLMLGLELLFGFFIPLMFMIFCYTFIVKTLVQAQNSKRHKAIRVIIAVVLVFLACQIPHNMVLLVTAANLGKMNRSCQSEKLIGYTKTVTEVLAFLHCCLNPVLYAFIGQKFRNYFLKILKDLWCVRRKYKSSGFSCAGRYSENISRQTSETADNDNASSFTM

human CCR7 [1] = biological target: T3, human CCR7 (human, UniProt P32248 25-378); test: FACS titration, NIH3T3 cells expressing human CCR7
T3 construct: The assay field tells which; also called hCCR7; NIH3T3.hCCR7
T3 sequence: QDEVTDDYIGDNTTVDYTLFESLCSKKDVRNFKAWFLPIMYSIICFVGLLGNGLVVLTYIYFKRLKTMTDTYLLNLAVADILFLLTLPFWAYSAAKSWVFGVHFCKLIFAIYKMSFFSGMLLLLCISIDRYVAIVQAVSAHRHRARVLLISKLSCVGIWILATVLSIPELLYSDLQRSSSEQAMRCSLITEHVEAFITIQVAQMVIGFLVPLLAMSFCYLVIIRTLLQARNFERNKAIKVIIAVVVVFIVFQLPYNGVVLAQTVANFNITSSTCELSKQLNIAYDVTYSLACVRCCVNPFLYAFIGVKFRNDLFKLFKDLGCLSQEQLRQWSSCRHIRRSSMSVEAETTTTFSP

human CCR7 [2] = biological target: T3, human CCR7; test: FACS titration, DEL cells (CCR7 receptor levels >=100,000)
CCR8 = biological target: T4, CCR8 (UniProt P51685 1-355, limits assumed); test: FACS on CHO-CCR8 cells
T4 construct: whole, on cells; also called CHO-CCR8
T4 sequence (P51685 whole entry): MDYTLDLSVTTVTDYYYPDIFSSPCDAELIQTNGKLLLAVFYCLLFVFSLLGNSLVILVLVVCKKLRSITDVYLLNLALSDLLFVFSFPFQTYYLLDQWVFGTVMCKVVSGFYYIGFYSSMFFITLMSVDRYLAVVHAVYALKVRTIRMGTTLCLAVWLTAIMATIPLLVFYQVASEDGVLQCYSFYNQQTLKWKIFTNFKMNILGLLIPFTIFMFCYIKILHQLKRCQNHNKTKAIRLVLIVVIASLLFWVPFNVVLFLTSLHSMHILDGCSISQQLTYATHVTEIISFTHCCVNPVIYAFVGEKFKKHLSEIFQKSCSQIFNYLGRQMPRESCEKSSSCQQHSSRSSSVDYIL

CXCR4 = biological target: T5, CXCR4 (UniProt P61073 1-352, limits assumed); test: FACS on HEK293-CXCR4 cells
T5 construct: whole, on cells; also called HEK293-CXCR4
T5 sequence (P61073 whole entry): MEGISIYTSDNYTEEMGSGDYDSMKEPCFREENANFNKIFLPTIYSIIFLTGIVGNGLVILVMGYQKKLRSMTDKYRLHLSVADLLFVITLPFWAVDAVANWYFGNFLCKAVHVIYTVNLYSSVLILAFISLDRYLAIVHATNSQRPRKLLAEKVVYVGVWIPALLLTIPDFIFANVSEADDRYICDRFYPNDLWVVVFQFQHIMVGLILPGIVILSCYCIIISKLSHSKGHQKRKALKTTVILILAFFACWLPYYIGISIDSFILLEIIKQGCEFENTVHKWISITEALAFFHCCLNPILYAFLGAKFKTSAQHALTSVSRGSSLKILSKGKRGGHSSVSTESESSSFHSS

cynomolgus monkey CCR7 [3] = biological target: T6, cynomolgus monkey CCR7 (cynomolgus monkey, UniProt P32248 25-378 (human entry)); test: FACS titration, cynomolgus CD4+ T cells
T6 construct: also called Cyno CCR7; NIH3T3.cyno CCR7
T6 sequence: T3 sequence with D174G

human CCR7 [4] = biological target: T3, human CCR7; test: ELISA on CCR7-expressing VLPs, pH 7.4 buffer
human CCR7 [5] = biological target: T3, human CCR7; test: ELISA on CCR7-expressing VLPs, pH 5.8 buffer
human CCR7 [6] = biological target: T3, human CCR7; test: FACS titration, human CD4+ T cells from PBMC
cynomolgus monkey CCR7 [7] = biological target: T6, cynomolgus monkey CCR7; test: FACS titration, NIH3T3 cells expressing cyno CCR7

- binding result (CCR9): no binding (tested: 5 ug/ml)
- binding result (CCR6): no binding (tested: 5 ug/ml)
- EC50 (human CCR7 [1]): 1 nM
- EC50 (human CCR7 [2]): 5.24 nM
- binding result (CCR8): no binding (tested: 5 ug/ml)
- binding result (CXCR4): no binding (tested: 5 ug/ml)
- EC50 (cynomolgus monkey CCR7 [3]): 12 nM
- Kd (human CCR7 [4]): 0.141 nM
- Kd (human CCR7 [5]): 0.521 nM
- EC50 (human CCR7 [6]): 30 to 34 nM
- EC50 (cynomolgus monkey CCR7 [7]): 0.9 nM
B1: 121G12 humanized CysMab (Fc Wild Type) (antibody, V domains shown)
VH: EVQLVESGGGLVKPGGSLRLSCAASGFTFSTYAMSWVRQAPGKGLEWVATISDAGSYSYYPDNVKGRFTISRDNAKNSLYLQMNSLRAEDTAVYYCARRGSRYEEYYVMDYWGQGTTVTVSS
VL: EIVLTQSPATLSVSPGERVTLSCRASQSISNNLHWYQQKPGQAPRLLIKYASQSISGIPARFSGSGSGTDFTLTISSVEPEDFGVYFCQQSSSWLTFGQGTKLEIK
notes: Human IgG1 kappa with CysMab cysteines (E152C, S375C); also called Humanized CysMab antibody 121G12; 121G12.CysMab.DAR4 unconjugated (assigned)
